Data: US20220242958A1 (published 2022)

Legend:
[1] = target: T1, human CD4, cell-expressed (human, UniProt P01730 26-458); assay: cell-based or functional assay
IL12Rβ2-Fc = target: T2, IL12Rβ2-Fc (human, UniProt Q99665 24-622); assay: SPR and competition ELISA, against IL12Rb2#1
T2 construct: extracellular domain; bought; also called hIL-12Rβ2-Fc; Fc-fusion of human IL12Rβ2 extracellular domain (R&D Systems #1959-B2)
T2 sequence (looked up): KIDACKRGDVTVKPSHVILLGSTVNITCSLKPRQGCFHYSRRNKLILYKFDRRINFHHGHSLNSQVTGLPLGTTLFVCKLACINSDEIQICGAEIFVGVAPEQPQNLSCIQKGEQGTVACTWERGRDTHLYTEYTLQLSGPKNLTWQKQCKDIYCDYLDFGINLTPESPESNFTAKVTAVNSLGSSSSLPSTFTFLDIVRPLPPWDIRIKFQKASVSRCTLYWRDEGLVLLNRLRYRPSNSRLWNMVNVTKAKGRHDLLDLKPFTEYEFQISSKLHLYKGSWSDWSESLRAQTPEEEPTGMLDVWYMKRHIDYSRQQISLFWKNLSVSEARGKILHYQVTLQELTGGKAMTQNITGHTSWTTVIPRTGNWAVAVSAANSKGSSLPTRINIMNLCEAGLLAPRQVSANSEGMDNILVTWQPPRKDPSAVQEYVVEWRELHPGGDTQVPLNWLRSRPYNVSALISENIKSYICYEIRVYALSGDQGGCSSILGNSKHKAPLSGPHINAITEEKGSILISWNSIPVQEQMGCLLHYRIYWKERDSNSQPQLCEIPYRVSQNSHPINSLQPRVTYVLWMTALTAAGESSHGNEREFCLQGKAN

[2] = target: T3, IL23R, cell-expressed on human T cells (human, UniProt Q5VWK5 24-629); assay: cell-based or functional assay
T3 sequence (looked up): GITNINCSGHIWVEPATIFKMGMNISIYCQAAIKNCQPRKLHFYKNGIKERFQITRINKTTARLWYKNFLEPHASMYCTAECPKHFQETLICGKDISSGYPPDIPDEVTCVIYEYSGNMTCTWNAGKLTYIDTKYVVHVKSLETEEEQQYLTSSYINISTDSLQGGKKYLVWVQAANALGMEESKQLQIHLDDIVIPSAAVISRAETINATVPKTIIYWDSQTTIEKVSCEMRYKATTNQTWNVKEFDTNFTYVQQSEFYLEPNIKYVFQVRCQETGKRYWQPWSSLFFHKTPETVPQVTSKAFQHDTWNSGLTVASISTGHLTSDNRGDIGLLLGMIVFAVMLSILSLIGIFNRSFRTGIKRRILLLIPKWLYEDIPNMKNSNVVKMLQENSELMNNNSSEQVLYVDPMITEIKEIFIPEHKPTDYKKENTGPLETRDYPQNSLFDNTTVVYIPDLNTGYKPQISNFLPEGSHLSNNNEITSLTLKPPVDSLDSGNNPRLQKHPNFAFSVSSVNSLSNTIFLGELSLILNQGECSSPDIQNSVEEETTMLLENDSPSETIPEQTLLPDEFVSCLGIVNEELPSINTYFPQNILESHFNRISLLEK

[3] = target: T1, human CD4, cell-expressed; assay: FACS, MOLM-13 cells
[4] = target: T4, human CXCR4 (on cells, membrane extracts or viral lipoparticles) (human, UniProt P61073 1-352); assay: ELISA, hCXCR4 VLPs
T4 construct: whole, on cells; see assay; also called hCXCR4 VLPs; CXCR4-VLP

[5] = target: CXCR4 and CD4 co-expressed on cells (human, UniProt P61073 1-352; P01730 26-458); assay: cell-based or functional assay
Chain of CXCR4 and CD4 co-expressed on cells (P61073 whole entry, chain 1 of 2, other chains not shown): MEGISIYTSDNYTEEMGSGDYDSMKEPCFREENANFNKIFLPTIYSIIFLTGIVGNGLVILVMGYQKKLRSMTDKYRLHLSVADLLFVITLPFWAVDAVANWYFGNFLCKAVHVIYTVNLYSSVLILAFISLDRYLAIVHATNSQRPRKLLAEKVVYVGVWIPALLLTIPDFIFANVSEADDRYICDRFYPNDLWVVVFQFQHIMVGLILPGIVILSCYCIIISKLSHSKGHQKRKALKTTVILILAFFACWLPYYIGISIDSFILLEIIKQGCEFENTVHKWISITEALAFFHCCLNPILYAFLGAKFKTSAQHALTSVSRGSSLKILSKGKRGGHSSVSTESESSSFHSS

T4 sequence (P61073 whole entry): as the sequence (P61073 whole entry, chain 1 of 2, other chains not shown) above

B1: 03F11 (CD4#8, Table 10) (VHH)
VHH: EVQLVESGGGSVQPGGSLTLSCGTSGRTFNVMGWFRQAPGKEREFVAAVRWSSTGIYYTQYADSVKSRFTISRDNAKNTVYLEMNSLKPEDTAVYYCAADTYNSNPARWDGYDFRGQGTQVTVSS
- IC50, HIV-1 BaL(R5) in PBMC [1]: 610 nM

B2: IL12Rb2#2: 135A07 (VHH)
VHH: EVQLVESGGRLVQAGDSLRLSCAASGRTFTSYRMGWFRQAPGKEREFVSALRWSSGNIDYTYYADSVKGRFSISGDYAKNTVYLQMNSLKAEDTAVYYCAASTRWGVMESDTEYTSWGQGTLVTVSS
notes: also called LG135A07; IL12Rβ2#2
- fold difference in KD and ligand competition between the family members (IL12Rβ2-Fc): 3.5 fold

B3: IL23R#19-CD4#8 (bispecific antibody)
chain: EVQLVESGGGLVQPGGSLTLSCVASGRTFSTDVMGWFRQAPGKEREFVAAHRTSGISTVYAASVKGRFTISRDNAKNTVYLGMKSLKPEDTAVYVCAAGSDASGGYDYWGQGTLVTVSSGGGGSGGGGSGGGGSGGGGSGGGGSGGGGSGGGGSEVQLVESGGGSVQPGGSLTLSCGTSGRTFNVMGWFRQAPGKEREFVAAVRWSSTGIYYTQYADSVKSRFTISRDNAKNTVYLEMNSLKPEDTAVYYCAADTYNSNPARWDGYDFRGQGTLVTVSS
notes: also called BI#42; T023200042
- IC50, IL-17 release PBMC D840 [2]: 58.9 nM
- fold ctrl, IL-17 release PBMC D840 [2]: 1.7 fold
- binding result [3]: binds

B4: 281F12-25GS-03F11 (bispecific antibody)
chain: EVQLVESGGGLVQAGDSLRLSCAASGRAFSRYAMGWFRQAPGKEREFVAAIGWGPSKTNYADSVKGRFTISRDNAKNTVYLQMNTLKPEDTAVYSCAAKFVNTDSTWSRSEMYTYWGQGTQVTVSSGGGGSGGGGSGGGGSGGGGSGGGGSEVQLVESGGGSVQPGGSLTLSCGTSGRTFNVMGWFRQAPGKEREFVAAVRWSSTGIYYTQYADSVKSRFTISRDNAKNTVYLEMNSLKPEDTAVYYCAADTYNSNPARWDGYDFRGQGTQVTVSS
notes: also called CXCR4#2-25GS-CD4#8
- binding result [4]: binds
- IC50, HIV-1 NL 4.3(X4) in MT-4 [5]: 0.21 nM
- IC50, HIV-1 NL 4.3(X4) in PBMC [5]: 0.12 nM
- IC50, HIV-1 NL 4.3 (X4) in U87 [5]: 2.67 nM
